# Test results taken from patent US11473061B2, “Systems and methods for growth of intestinal cells in microfluidic devices” (Cedars-Sinai Medical Center, priority 2016, dated 2022).
# B1: IFNgamma: inflammatory cytokine interferon-gamma (protein, UniProt P01579 24-161, looked up)
# Interferon gamma: QDPYVKEAENLKKYFNAGHSDVADNGTLFLGILKNWKEESDRKIMQSQIVSFYFKLFKNFKDDQSIQKSVETIKEDMNVKFFNSNKKKRDDFEKLTNYSVTDLNVQRKAIHELIQVMAELSPAAKTGKRKRSQMLFRG
# Columns and labels:
# iFGEs = experiment: Seahorse mitochondrial stress test in iFGEs; format: cell-based, human; details: low-dose EDC treatment
# Method: (§2) The Seahorse XF^e24 Extracellular Flux Analyzer (Seahorse Biosciences) was used to perform mitochondrial stress tests and obtain real-time measurements of oxygen consumption rate (OCR) in cells. iFGEs and iHTNS treated with or without EDCs were seeded in a 24-well Seahorse culture plate at a density of 10,000-15,000 cells/well. For analysis of OCR, cells were reconstituted in Seahorse base medium and were allowed to settle for 1 hour at 37° C. in non-CO2 incubator before measurements. Chemical reagents (Sigma) were used at final concentrations as follows: 1 μM Oligomycin—an ATP synthase inhibitor, 1 μM (FCCP) carbonyl cyanide 4-(trifluoromethoxy)phenylhydrazone—an uncoupling agent, and a mixture of 0.50 μM antimycin A—a cytochrome C reductase inhibitor and 0.5 μM rotenone—a complex I inhibitor. Results were normalized to protein concentration determined by BCA assay (Thermo Scientific).
# iHTNs = experiment: Seahorse mitochondrial stress test in iHTNs; format: cell-based, human; details: low-dose EDC treatment
# Method: as §2
# [1] = system: human intestinal epithelial cells derived from IPSCs; experiment: Transepithelial electrical resistance (TEER) in microfluidic chips; format: cell-based; details: 10 ng/ml of IFNgamma, basal administration, over time
# Method: (§1) Human intestinal epithelial cells derived from IPSCs were treated with 10 ng/ml of IFNgamma. The basal administration of IFNg leads to a decrease in transepithelial resistance and an increase in the efflux of dextran FITC in human intestinal epithelial cells derived from IPSCs. Basically this means that the intestinal epithelium is more permeable in response to this cytokine.
# [2] = system: human intestinal epithelial cells derived from IPSCs; experiment: Dextran FITC permeability of iPSC-derived intestinal epithelium; format: cell-based; details: for basal accumulation of FITC dextran: after addition to the apical layer; for permeability co-efficient (FITC dextran added to the apical channel): microfluidic chips
# Method: as §1
# hindgut intestinal cells = experiment: TEER of hindgut intestinal cells grown in transwell; format: cell-based, human; details: for TEER / transepithelial resistance: transwell, compared to control
# Source text: FIG. 76. Depiction of exemplary transwell apparatus, including deposit of cells on a membrane and measurement of electrical properties via electrodes spanning both sides of the chamber.
# FIG. 79. TEER measurement of hindgut intestinal cells growth in transwell.
# FIG. 81. Another depiction of IFNγ responsiveness for cells grown in a transwell system.
# [3] = system: STAT1 and IFNgamma responsive genes; experiment: IFNgamma response of iPSC-derived intestinal cells in small microfluidic device; format: cell-based, human; details: IFNgamma administered to the lower channel
# Method: In one embodiment, iPSCs were directed to form HIOs and were subsequently dissociated to a single cell suspension. These cells were then seeded into a small microfluidic device (SMD) which is composed of two chambers separated by a porous flexible membrane. See, FIG. 40.
# Caco2 cells = experiment: IFNgamma response of Caco-2 cells on chips; format: cell-based, human
# [4] = human intestinal epithelial cells derived from IPSCs
molecule,measurement,setting,value
"O=C(O)C(F)(F)C(F)(F)C(F)(F)C(F)(F)C(F)(F)C(F)(F)C(F)(F)F [PFOA, perfluorooctanoic acid]",effect on spare respiratory capacity,iFGEs,did not show any effect
same,effect on spare respiratory capacity,iHTNs,did not show any effect
TNFalpha,transepithelial electrical resistance (TEER),[1]; n=4,increased TEER over time comparable to controls
same,basal accumulation of FITC dextran,[2]; [4],comparable
same,intestinal permeability,"[2]; human intestinal epithelial cells derived from IPSCs, microfluidic cultures",does not elicit any change
same,permeability co-efficient (FITC dextran added to the apical channel),[2],comparable
same,intestinal permeability,hindgut intestinal cells; transwell system,does not elicit any change
tributyltin [TBT],effect on spare respiratory capacity,iHTNs,significant impairment
B1,"IFNgamma responsive genes (IDO1, GBP4 and/or GBP5)",[3],significant upregulation
same,phospholipase A2 group 2A and Muc4 expression,[3],upregulated
same,phosphorylation of STAT1,[3],phosphorylation
same,transepithelial electrical resistance (TEER),[1]; n=4,loss
same,transepithelial electrical resistance (TEER),"[1]; n=4, listed as IFNg",decrease
same,genes associated with intestinal epithelial subtypes,Caco2 cells; Caco2 cells,no corresponding upregulation
same,response to IFN-gamma (relative expression of gene markers),Caco2 cells; Caco-2 epithelial cells grown on chips vs enteroids grown on chips,do not show the same response
same,efflux of dextran FITC,[2]; [4],increase
same,basal accumulation of FITC dextran,"[2]; human intestinal epithelial cells derived from IPSCs, listed as IFNγ",basal accumulation
same,permeability co-efficient (FITC dextran added to the apical channel),[2],increase
same,TEER / transepithelial resistance,hindgut intestinal cells,decrease
same,TEER / transepithelial resistance,hindgut intestinal cells; listed as IFNγ,increase
